B1: OR4K15 (parent)
chain: GUUAACGGUCAUAGGCCAUGGAAACUAGGAGCACCAUUUCGCUGCCAGUGAAGAAAUGAACAAAGAAAAUCUGGGCCAGGCAGGCAUCAAAAGAAAUAGUCUUGCGCUCAACCAGAAAGUCUGUAAUCAUUUUAAGGGUA

Variants of: B1
Assay: self-cleavage, relative activity (ratio to wild type); higher = more cleavage; in vitro, sequencing; the parent is a self-cleaving ribozyme

Variant	self-cleavage
U103A A114U	0.05
C107G A117G	0.01
A111G G138U	0.01
C101U C105A	0.01
U108A G123C	0.01
U108A G123U	0.01
U108C U131C	0.01
U103C A135G	0.95
C109U U120C	0.15
U108G A126G	0
U108A U130C	0.01
A110C A135U	0.06
U102G G106C	0.01
U100C A126U	0.32
A110U U124A	0.9
A114G A134G	0.63
U100A U130C	0.09
G104U A117G	0.02
A114G G138C	0.31
A111C A140G	0.01
U102C U127C	1.56
C109A A140G	0.47
A110U U139C	0.59
U108A A114U	0

Variant	self-cleavage
U102C U103C	0.21
C109U	0.49
C109G	0.02
C109A	0.38
U108A U127C	0
C113G U131C	0
A111G U124G	0.01
U108G U122C	0.02
A110G A117U	0.06
C107G	0.02
C107U	0.02
C107A	0.03
A114G A126U	0.46
A114G A126G	0.28
C112U A118G	0
U103C A114U	0.04
U108A A116G	0.01
A111G C112G	0
A110C A125G	0.11
C107A U108C	0.02
G106U A129G	0.01
C105A U108C	0.01
U100G U103C	0.09
A114G U124C	0.07

Variant	self-cleavage
A114G U124G	0.21
C112U U122A	0.01
C113A A140G	0
C105U A135U	0.28
G104A A125G	0.01
U102A A117G	1.12
G106A A118G	0.02
G106A A118U	0
C112A A125G	0.01
U100C U130A	2.16
U100A U122C	0.28
A111U A125G	0.01
U103C A129G	0.56
A110G A114G	0.05
A110G A114U	0.03
A110G A114C	0.01
C112U A116G	0
U103C A116G	0.5
U103C A116U	0.23
U108C A118U	0
U108C A118G	0.01
U108C U122C	0.01
U108C U122A	0.01
U108C U122G	0

Variant	self-cleavage
U103A A118G	0.41
A111C A135U	0.03
G106A A135G	0.02
G106A A140U	0.05
A110G A135G	0.12
C101A U124C	0.08
U103C A110U	0.79
U103C A110G	0.15
U100A U108C	0.03
U108A A110G	0.01
C109U U130C	0.35
C109U U130A	0.25
U102A U103C	0.12
A110U C113U	0.02
C109U A117G	0.44
U102C A110U	1.94
G106A A110G	0.01
U100C U103C	2.89
U103C U108C	0.01
U103G G137U	0.05
U103G G137A	0.1
U102A U108C	0
U100C A135G	1.74
U100C A135U	2.37

Variant	self-cleavage
A114G A129U	0.13
A114G A129G	0.07
U103C G106A	0.02
A111G A117C	0
A111G A117U	0
A110U U120C	0.08
U100C A129G	2.22
U100C A129C	1.8
U102C C109A	0.3
U103A A116U	0.2
U103C A118G	0.22
U102G U133A	1.45
U102C G138A	1.82
A114G A117G	0.37
U102C U122A	1.51
U102C U122C	1.24
U103A U131C	0.45
U103C A111U	0.1
U102C U139A	2.11
C105U U108C	0.02
U108G A118G	0.01
U103C A140G	1.38
A114C A125G	0.01
A110U U130C	1.06

Variant	self-cleavage
U102C C113A	0.28
U102C C113U	0.33
U102G A116G	0.62
U108A C121U	0
U103C U122A	1.14
G106A U139A	0
C112U A129G	0.01
U108A A129U	0.03
A111U U124C	0.08
A111U A116G	0.04
U108C C121U	0.02
C105G G136U	0.02
U108C U124C	0
U108C U124A	0.01
U108C U139A	0.04
A110C A114U	0.01
U100C A117U	1.45
U100C A117G	2.56
U108A U120A	0.02
U108A U120C	0.01
U108C A134C	0.01
U103C U132A	1.03
U102C A135C	1.02
U102C A135U	2.46

Variant	self-cleavage
U108C U132A	0.02
U108C U132C	0.01
C109A U120C	0.36
C105U U139C	0.08
C101G U120C	0.03
U102C U132A	2.37
A111G U120C	0.01
U108G A116G	0
A110U A140G	2.04
U108A A140G	0
U108A A140C	0.04
U103C A134G	1.49
U103C A134U	0.78
A111G A135G	0.02
C107A U133A	0.02
U108C C112U	0.01
C112G U122A	0.05
G106A U108C	0
U100C U127G	2.43
A110G A125C	0.17
C113U U120C	0.04
A110C A116G	0.26
C105U U122A	0.27
